# Measured values reported in patent publication US20230348603A1.
# B1: 14C05 mouse Fab (periplasmic extract) (Fab, V domains shown)
# VH: EVMLVESGPELKKPGETVKISCKASGYTFTNYGMNWVKQAPGKGLKWMGSINTYTGEATYADDFKGRFAFSLETSANTAYLQIDNLKNEDTATYFCARGDYYGRGTWFAYWGQGTLVTVSA
# VL: ETTVTQSHKFMSTSVGDRVSITCKASQDVSTAVAWYQQKPGQSPKLLIYSASYRYPGVPDRFTGSGSGTDFTFTISSVQAEDLAVYYCQQDYSSPWTFGGGTKLEIK
# B2: 15C03 mouse Fab (periplasmic extract) (Fab, V domains shown)
# VH: EVKLLESGPGLVKPSQSLSLTCTVTGYSITSDYAWNWIRQFPGNKLEWMGYISYSGSTRYNPSLKSRISITRDTSNNQFFLQLNSVTTEDTATYYCARSGYAAMDYWGQGTSVTVSS
# VL: ENVLTQSPAIMSASPGEKVTMTCRASSSVSSSYLHWYQQKSGASPKLWIYSTSNLASGVPARFSGSGSGTSYSLTISSVEAEDAATYYCQQYSGYPLTFGSGTKLEIK
# B3: 16E10 mouse Fab (periplasmic extract) (Fab, V domains shown)
# VH: QVQLQQSGAELVRPGTSVKISCKASGYTFTNYWLGWVKQRPGHGLEWIGDIYPGGGYTNYNEKFKGKATLTADTSSSTAYMQLSSLTSEDSAVYFCAKFYYYGSSYYFDSWGQGTTLTVSS
# VL: DIVLTQSPSSLSVSAGEKVTLSCKSSQSLLNSGNQENYLAWYQQKPGQPPKLLIYGASTRESGVPDRFTGSGSGTDFTLTISSVQAEDLAVYYCQNDHSYPLTFGAGTKLELK
# B4: 14D12 mouse Fab (periplasmic extract) (Fab, V domains shown)
# VH: QIQLVQSGPELKKPGETVKISCKASGYTFTNYGMNWVKQTPGKGLKWMGLINTYTGEPTYADDFKGRFAFSLETSASTAYLQINNLKNEDMATYFCARERIYGYLHYFDYWGQGTTLTVSS
# VL: DVVMTQTPASLAVSLGQRATISCKASQSVDYDGDSYMNWYQQKPGQPPKLLIYAASNLESGIPARFSGSGSGTDFTLNIHPVEEEDAATYYCQQSNEDPRTFGGGTKLEIK
# B5: 12A12 mouse Fab (periplasmic extract) (Fab, V domains shown)
# VH: QVQMKQSGAELAKPGASVKMSCKASGYTFTNYWMHWVKQRPGQGLEWIGYINPSTGYTDYNQNFKDRATLTADKSSSTAYMQLSSLTSEDSAVYYCIRGSDYYGRDYWGQGTTLTVSS
# VL: DIQMTQTTSSLSASLGDRVTISCRASQDISNYLNWYQQKPDGTLKLLIYYTSRLHSGVPSRFSGSGSGTDYSLTISNLEQEDIATYFCRQGNTLPWTFGGGTKLEIK
# B6: 16E03 mouse Fab (periplasmic extract) (Fab, V domains shown)
# VH: QVQLQQSGAELARPGASVKMSCKASGYTFTSYTMHWIKQRPGQGLEWIGYINPSSGHTYYNQKFKDKATLTPDKSSSTAYMQLTSLTSEDSAVYYCARRIPTAYAMDYWGQGTSVTVSS
# VL: EIQMTQSHKFMSTSVGDRVSITCKASQDVGTAVAWYQQKPGQSPKLLIYWASTRHTGVPDRFTGSGSGTDFTLTISNVQSEDLADYFCQQYSSYPLTFGAGTKLELK
# B7: 13H11 mouse Fab (periplasmic extract) (Fab, V domains shown)
# VH: QIQLVQSGPELKKPGETVKISCKASGYTFENFGMNWVKQAPGKGLKWMGWINTYTGEATYADDFKGRFAFSLETSASTAYLQINNLKNEDTATYFCARDGGFRHFDVWGAGTTVTVSS
# VL: ETTVTQSPASLSVATGEKVTIRCITSTDIDDDMNWYQQKPGEPPKLLISEGNTLRPGVPSRFSSSGYGTDFVFTIENMLSEDVADYYCLQSDNLPLTFGAGTKLELK
# B8: 12A08 mouse Fab (periplasmic extract) (Fab, V domains shown)
# VH: EVMLVESGGGLVKPGGSLKLSCAASGFTFDDFYMYWVRQTPEKRLEWVASISDGGTYTYYPDSVKGRFTISRDNAKNTLYLQLSSLKSEDTAMYYCARGVDKYYYAMDYWGQGTSVTVSS
# VL: QILLTQSPAIMSASPGEKVTITCSASSSVSYMHWFQQKPGTSPKLWIYSTSNLASGVPARFSGSGSGTSYSLTISRMEAEDAATYYCQQRSSYPLTFGAGTKLELK
# Target: Mouse VSIG4-His (mouse)
# Sequence (chain, as listed by the source limits assumed): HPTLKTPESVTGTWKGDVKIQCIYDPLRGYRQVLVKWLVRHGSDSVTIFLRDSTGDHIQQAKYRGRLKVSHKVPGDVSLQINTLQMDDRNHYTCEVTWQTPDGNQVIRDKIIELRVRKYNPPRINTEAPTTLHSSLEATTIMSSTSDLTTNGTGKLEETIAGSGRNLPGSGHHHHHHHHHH
# Assay: ELISA, Fab P.E. 1:5 on coated antigen
row,ELISA OD450,Binder
1,0.059 OD450,B1
2,0.065 OD450,B2
3,0.058 OD450,B3
4,0.054 OD450,B4
5,0.063 OD450,B5
6,0.057 OD450,B6
7,0.057 OD450,B7
8,0.057 OD450,B8
